Test results taken from article PMC7248865, “Ultrasensitive and Highly Selective Graphene-Based Field-Effect Transistor Biosensor for Anti-Diuretic Hormone Detection”.

Molecular target: T1, anti-diuretic hormone (ADH, arginine-vasopressin) (UniProt P01185 20-28)
T1 chain: CYFQNCPRG
Assay: graphene FET (drain current); 10 ag/mL to 1 pg/mL ADH in PBS; ID 116.26 to 338.64 uA at VG 8 V; sensor LOD 3.55 ag/mL; PBS (or human serum), 10 min incubation per concentration, PBS washes; pH and temperature not stated

B1: ADH-specific aptamer (ssDNA)
DNA: TCACGTGCATGATAGACGGCGAAGCCGTCGAGTTGCTGTGTGCCGATGCACGTGA
modifications: 5'-amine
**Q.** Does B1 bind?
**A.** binds
